Test results from US20250092426, “CAS ENDONUCLEASES AND RELATED METHODS” (Flagship Pioneering Innovations VII, LLC, published 2025).

Target: T1, CasEnd-22 (synthetic construct)
T1 chain: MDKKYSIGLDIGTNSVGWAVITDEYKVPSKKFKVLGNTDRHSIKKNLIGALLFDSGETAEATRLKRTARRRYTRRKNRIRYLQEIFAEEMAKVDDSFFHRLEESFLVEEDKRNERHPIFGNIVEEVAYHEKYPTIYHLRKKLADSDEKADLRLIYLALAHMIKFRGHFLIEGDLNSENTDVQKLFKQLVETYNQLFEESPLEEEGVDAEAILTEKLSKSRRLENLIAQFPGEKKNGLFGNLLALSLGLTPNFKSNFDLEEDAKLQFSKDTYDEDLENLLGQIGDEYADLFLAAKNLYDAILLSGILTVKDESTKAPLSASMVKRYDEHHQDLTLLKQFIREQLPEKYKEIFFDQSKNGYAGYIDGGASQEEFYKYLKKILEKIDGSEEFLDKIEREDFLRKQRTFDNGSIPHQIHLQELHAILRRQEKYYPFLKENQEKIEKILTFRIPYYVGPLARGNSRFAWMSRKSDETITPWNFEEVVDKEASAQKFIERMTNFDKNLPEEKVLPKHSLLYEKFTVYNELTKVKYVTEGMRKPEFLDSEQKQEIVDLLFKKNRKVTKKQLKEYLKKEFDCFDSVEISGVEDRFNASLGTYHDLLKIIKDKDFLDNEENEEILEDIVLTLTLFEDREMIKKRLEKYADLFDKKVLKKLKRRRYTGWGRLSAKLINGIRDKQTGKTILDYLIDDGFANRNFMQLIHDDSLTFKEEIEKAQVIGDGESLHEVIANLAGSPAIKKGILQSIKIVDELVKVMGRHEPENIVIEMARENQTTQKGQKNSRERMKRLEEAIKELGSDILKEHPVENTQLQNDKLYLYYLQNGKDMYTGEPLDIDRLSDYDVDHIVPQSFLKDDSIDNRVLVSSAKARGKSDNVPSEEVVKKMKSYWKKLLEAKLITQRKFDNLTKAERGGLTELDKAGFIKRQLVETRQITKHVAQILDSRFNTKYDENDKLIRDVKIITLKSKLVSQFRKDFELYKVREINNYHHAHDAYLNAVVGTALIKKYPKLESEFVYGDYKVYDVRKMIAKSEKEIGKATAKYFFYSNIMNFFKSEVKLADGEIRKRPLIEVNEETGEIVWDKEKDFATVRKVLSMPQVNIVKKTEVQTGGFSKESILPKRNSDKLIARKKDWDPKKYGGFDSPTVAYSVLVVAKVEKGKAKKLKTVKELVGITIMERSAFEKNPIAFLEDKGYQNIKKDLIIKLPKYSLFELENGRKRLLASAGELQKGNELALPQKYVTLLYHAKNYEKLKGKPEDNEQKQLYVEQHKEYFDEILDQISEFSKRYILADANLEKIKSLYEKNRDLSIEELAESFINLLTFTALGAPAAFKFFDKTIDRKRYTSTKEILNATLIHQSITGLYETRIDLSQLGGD
Assay: cell_activity; +++; HEK293T; PAM not stated
How it was run: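 Editing activity was scored as the fraction of GFP+ cells on day 4 by flow cytometry. BFP-expressing HEK293T cells (250,000) received by nucleofection 200 ng plasmid for the RT-Cas fusion protein and 200 ng template RNA plasmid designed to convert BFP to GFP.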

B1: BFP-to-GFP template RNA ; BFP reporter protospacer (ssRNA ; dsDNA)
RNA: GCCGAAGCACUGCACGCCGUGUUUUAGAGCUAGAAAUAGCAAGUUAAAAUAAGGCUAGUCCGUUAUCAACUUGAAAAAGUGGCACCGAGUCGGUGCACCCUGACGUACGGCGUGCAGUGCUU
DNA 1: GCCGAAGCACTGCACGCCGT
DNA 2: ACGGCGTGCAGTGCTTCGGC
activity: ≥ 100 % of reference
